The values below come from article PMC3319868.

Like-named read-outs stand apart in the source and are kept apart here.

The target in data set [1] is T1, HIF-1α;ARNT (HIF-1β) (human;human?, UniProt Q16665;P27540 1-826;1-789, |). As to the kind of experiment: competition.
Data set [2] has as its target T1, HIF-1α;ARNT (HIF-1β). The data set can be described thus: competition. The source holds these as a separate data set.

T1 sequence (Q16665 whole entry, chain 1 of 2): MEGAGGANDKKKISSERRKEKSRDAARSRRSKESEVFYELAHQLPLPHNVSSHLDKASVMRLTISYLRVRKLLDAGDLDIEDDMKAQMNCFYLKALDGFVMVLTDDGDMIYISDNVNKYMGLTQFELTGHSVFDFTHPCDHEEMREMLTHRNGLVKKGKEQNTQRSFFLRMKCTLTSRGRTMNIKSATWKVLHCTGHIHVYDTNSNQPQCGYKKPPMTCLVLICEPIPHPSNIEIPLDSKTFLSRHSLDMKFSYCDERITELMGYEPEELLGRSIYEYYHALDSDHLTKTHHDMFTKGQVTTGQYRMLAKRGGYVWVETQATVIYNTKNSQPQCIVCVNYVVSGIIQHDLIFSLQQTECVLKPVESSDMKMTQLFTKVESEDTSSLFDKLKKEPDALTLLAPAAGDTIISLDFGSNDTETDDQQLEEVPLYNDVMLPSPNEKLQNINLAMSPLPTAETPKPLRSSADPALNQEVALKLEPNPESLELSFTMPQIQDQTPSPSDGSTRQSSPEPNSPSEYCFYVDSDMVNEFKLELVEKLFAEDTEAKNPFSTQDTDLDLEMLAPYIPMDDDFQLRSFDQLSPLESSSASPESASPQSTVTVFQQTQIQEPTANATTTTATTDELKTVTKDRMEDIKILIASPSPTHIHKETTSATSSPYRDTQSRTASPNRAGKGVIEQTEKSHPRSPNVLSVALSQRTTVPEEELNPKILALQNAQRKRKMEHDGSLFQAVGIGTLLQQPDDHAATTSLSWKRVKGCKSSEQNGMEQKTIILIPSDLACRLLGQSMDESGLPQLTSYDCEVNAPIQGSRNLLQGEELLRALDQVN
T1 sequence (P27540 whole entry, chain 2 of 2): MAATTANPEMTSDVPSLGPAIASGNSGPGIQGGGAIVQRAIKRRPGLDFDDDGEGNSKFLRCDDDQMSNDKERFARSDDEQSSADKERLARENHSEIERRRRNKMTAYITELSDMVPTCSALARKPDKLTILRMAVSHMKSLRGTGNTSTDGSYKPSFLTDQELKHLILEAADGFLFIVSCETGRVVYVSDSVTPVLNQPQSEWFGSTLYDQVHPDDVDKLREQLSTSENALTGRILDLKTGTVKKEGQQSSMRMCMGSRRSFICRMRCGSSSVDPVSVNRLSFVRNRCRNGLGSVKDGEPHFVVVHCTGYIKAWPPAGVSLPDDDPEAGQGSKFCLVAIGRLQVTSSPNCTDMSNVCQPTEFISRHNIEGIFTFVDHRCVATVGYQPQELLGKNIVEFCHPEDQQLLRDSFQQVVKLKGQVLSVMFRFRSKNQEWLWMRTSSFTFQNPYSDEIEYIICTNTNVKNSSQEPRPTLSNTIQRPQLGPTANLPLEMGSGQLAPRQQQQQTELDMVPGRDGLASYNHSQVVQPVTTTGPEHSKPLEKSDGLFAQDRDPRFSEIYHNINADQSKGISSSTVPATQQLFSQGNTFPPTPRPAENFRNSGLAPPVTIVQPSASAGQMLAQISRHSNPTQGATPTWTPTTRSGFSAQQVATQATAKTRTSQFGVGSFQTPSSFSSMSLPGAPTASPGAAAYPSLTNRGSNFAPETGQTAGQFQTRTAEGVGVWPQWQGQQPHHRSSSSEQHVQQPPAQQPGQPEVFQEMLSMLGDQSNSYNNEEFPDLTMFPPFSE

B1: mutated HRE (OL570/OL571) (dsDNA)
DNA 1: AGCTTGCCCTAGCTGCTGTCTCAGA
DNA 2: TCTGAGACAGCAGCTAGGGCAAGCT
As for B1, in the data set with HIF-1α;ARNT (HIF-1β) [1], the binding result is “no binding”.

B2: wild type HRE (OL568/OL569) (dsDNA)
DNA 1: AGCTTGCCCTACGTGCTGTCTCAGA
DNA 2: TCTGAGACAGCACGTAGGGCAAGCT
With B2, the binding result with HIF-1α;ARNT (HIF-1β) [2] is “binds”.
